Each block holds one molecule with its values, some of them ahead of it.
Experiments:
[1] = target: GFP-LacI-53BP1 (human) (UniProt Q12888); test: LacO/LacI tethering
[2] = target: mCherry-LacI-TIRR (human) (UniProt Q9BRJ7); test: LacO/LacI tethering
[3] = target: TIRR-His (recombinant TIRR) (human, UniProt Q9BRJ7 1-211); test: ITC
TIRR-His (recombinant TIRR), sequence (Q9BRJ7 whole entry): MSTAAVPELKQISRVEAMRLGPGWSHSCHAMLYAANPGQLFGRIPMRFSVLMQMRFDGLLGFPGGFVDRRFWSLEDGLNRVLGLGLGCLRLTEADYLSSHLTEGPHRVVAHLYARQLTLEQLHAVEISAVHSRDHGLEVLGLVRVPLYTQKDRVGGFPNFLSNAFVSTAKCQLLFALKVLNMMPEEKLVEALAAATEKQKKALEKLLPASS

GFP-LacI-53BP1 (human), sequence (Q12888 whole entry): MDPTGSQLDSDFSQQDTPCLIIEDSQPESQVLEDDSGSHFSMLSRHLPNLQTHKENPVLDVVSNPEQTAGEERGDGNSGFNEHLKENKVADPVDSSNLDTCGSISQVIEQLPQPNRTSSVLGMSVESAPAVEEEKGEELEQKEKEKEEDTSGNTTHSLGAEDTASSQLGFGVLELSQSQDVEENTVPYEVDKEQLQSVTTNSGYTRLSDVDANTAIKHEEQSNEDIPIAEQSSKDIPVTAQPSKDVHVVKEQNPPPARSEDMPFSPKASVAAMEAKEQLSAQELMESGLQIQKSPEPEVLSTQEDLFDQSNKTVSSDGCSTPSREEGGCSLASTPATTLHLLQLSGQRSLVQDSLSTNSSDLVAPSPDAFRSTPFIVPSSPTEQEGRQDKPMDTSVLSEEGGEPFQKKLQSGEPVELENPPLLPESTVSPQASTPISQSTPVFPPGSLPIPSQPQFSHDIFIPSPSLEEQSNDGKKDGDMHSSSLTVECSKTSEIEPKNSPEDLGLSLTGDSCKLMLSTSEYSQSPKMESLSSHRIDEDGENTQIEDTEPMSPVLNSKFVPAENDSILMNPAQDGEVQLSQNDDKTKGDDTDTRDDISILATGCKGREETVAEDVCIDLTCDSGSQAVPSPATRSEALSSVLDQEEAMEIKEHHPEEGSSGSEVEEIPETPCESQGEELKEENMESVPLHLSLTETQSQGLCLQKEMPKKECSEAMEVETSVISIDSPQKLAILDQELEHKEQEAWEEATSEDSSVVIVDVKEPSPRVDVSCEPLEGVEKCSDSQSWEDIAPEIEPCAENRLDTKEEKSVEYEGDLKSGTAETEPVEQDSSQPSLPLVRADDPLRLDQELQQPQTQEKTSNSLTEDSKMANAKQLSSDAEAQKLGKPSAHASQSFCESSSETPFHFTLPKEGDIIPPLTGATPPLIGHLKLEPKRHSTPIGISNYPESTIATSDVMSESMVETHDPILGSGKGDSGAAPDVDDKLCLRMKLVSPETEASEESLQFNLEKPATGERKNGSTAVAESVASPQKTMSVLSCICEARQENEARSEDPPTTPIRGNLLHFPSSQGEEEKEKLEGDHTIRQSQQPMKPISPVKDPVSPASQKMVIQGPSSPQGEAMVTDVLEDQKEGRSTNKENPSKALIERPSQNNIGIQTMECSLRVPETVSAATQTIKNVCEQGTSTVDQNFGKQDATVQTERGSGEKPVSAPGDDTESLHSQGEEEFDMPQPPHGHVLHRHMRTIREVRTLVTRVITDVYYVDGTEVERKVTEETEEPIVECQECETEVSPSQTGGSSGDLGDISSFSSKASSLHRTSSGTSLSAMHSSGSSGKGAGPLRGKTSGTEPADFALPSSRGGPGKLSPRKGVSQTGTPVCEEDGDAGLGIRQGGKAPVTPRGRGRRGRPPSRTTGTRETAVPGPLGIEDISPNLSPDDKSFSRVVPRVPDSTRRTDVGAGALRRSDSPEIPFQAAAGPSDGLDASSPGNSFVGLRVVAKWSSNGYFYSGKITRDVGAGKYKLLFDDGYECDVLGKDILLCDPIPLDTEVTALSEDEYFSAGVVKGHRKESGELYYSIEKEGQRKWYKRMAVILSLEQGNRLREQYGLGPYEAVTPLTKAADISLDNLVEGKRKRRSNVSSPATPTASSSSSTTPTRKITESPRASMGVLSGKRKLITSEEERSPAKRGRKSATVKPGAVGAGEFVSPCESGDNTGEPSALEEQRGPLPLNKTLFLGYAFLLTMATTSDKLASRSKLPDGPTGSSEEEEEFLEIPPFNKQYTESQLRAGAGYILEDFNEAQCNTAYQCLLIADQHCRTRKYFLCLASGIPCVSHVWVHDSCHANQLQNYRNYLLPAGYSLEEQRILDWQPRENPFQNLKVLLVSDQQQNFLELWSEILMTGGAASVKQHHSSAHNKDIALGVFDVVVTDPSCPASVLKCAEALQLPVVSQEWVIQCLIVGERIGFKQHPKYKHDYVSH
mCherry-LacI-TIRR (human), sequence (Q9BRJ7 whole entry): as the sequence (Q9BRJ7 whole entry) above

percent of cells with co-localisation on the LacO array (% of the cells) [1]: 72
Molecule: mCherry-TIRR (from UniProt Q9BRJ7 1-211) (natural protein)

percent of cells with co-localisation on the LacO array (% of the cells) [2]: 57.5
Molecule: 53BP1 (P53-binding protein 1), endogenous (from UniProt Q12888 1-1972) (natural protein)

Kd [3]: 790 nM
stoichiometry N [3]: 1
B1: 53BP1 tandem Tudor domain (for ITC and NMR) (domain or fragment)
chain: NSFVGLRVVAKWSSNGYFYSGKITRDVGAGKYKLLFDDGYECDVLGKDILLCDPIPLDTEVTALSEDEYFSAGVVKGHRKESGELYYSIEKEGQRKWYKRMAVILSLEQGNRLREQYGLG
modifications: 15N-labelled for NMR; limits from PDB 2G3R (GHM tag remnant left out)

— publication PMC5441565 (Nature, 2017)
